Where two headings read alike, the source gives them in different places.
T1: mouse ASC (mouse, UniProt Q9EPB4 1-193)
T1 construct: recombinant mASC in ELISA and SPR; endogenous ASC of J774.A1 cells in Western blot and immunofluorescence; also called mASC
T1 sequence: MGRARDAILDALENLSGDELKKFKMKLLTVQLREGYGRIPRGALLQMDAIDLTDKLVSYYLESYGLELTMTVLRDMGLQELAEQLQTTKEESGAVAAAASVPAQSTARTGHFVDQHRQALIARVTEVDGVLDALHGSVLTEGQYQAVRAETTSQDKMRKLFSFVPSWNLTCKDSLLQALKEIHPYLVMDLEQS

T2: CARD domain of human ASC (human, UniProt Q9ULZ3 107-195)
T2 construct: biotinylated in BLI; also called hCARD; human CARD
T2 sequence: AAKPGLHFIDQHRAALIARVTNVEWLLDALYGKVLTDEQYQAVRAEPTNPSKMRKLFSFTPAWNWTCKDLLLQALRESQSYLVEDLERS


Tests used:
PYD domain of human ASC [1] = biological target: T3, PYD domain of human ASC (human, UniProt Q9ULZ3 1-91, limits assumed); experiment: BLI binning on PYD, competitor 2617C3A8-AB1
T3 construct: biotinylated in BLI; His/MBP-tagged in the alanine ELISA; also called hPYD; human PYD
T3 sequence (Q9ULZ3 1-91 limits assumed): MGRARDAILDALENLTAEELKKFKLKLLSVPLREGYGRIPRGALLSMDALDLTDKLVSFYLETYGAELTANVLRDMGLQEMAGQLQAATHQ

PYD domain of human ASC [2] = biological target: T3, PYD domain of human ASC; experiment: BLI binning on PYD, competitor 401H9B7-AB1
mouse ASC [3] = biological target: T1, mouse ASC; experiment: SPR affinity mode, mAb captured;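 further: Single-cycle SPR kinetics with mAbs captured on goat anti-mouse antibody, double-referenced against blank flow cell and buffer cycle, fitted by a 1:1 kinetic model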
[4] = biological target: T4, human ASC (apoptosis associated speck-like protein containing a caspase-recruitment domain) (human, UniProt Q9ULZ3 1-195); experiment: SPR affinity mode, mAb captured;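 further: Single-cycle SPR kinetics with mAbs captured on goat anti-mouse antibody, double-referenced against blank flow cell and buffer cycle, fitted by a 1:1 kinetic model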
T4 construct: recombinant hASC in ELISA and SPR; endogenous ASC (cytoplasmic or specks) in Western blot and immunofluorescence; also called hASC; PYCARD

PYD domain of human ASC [5] = biological target: T3, PYD domain of human ASC; experiment: BLI binning on PYD, competitor 416E6G4-AB1
CARD domain of human ASC [6] = biological target: T2, CARD domain of human ASC; experiment: sandwich ELISA on MBP-tagged protein captured by anti-MBP antibody, signal as % of hPYD-WT
PYD domain of human ASC [7] = biological target: T3, PYD domain of human ASC; experiment: BLI binning on PYD, competitor 2610H7D3-AB1
mouse ASC [8] = biological target: T1, mouse ASC; experiment: ELISA, coated mASC
PYD domain of human ASC [9] = biological target: T3, PYD domain of human ASC; experiment: BLI binning on PYD, competitor 22D3A6-AB1
[10] = biological target: T4, human ASC (apoptosis associated …); experiment: ELISA, coated hASC;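 further: antibody binding to plate-coated recombinant human ASC, read as phosphatase substrate absorbance, EC50 from four-parameter variable-slope fit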
PYD domain of human ASC [11] = biological target: T3, PYD domain of human ASC; experiment: BLI binning on PYD, competitor 31F10C5-AB1
mouse ASC [12] = biological target: T1, mouse ASC; experiment: cell-based or functional assay
PYD domain of human ASC [13] = biological target: T3, PYD domain of human ASC; experiment: BLI binning on PYD, competitor 23E5F7-AB2
PYD domain of human ASC [14] = biological target: T3, PYD domain of human ASC; experiment: BLI binning on PYD, competitor 2626B9D3-AB1
PYD domain of human ASC [15] = biological target: T3, PYD domain of human ASC; experiment: BLI binning on PYD, competitor 26A1G2-AB1
[16] = biological target: T4, human ASC (apoptosis associated …); experiment: cell-based or functional assay
mouse ASC [17] = biological target: T1, mouse ASC; experiment: cell-based or functional assay; remark: listed apart in the source
[18] = biological target: T4, human ASC (apoptosis associated …); experiment: cell-based or functional assay; remark: listed apart in the source
PYD domain of human ASC [19] = biological target: T3, PYD domain of human ASC; experiment: ELISA, coated hPYD;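 further: monoclonal antibody binding to plate-coated human ASC PYD measured by ELISA, with a phosphatase substrate absorbance read-out and EC50 from a variable slope curve fit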
CARD domain of human ASC [20] = biological target: T2, CARD domain of human ASC; experiment: sandwich ELISA on MBP-tagged protein captured by anti-MBP antibody, signal as % of hPYD-WT; remark: listed apart in the source
CARD domain of human ASC [21] = biological target: T2, CARD domain of human ASC; experiment: ELISA, coated hCARD
CARD domain of human ASC [22] = biological target: T2, CARD domain of human ASC; experiment: BLI binning on CARD, competitor 2504F3D9-Ab1
CARD domain of human ASC [23] = biological target: T2, CARD domain of human ASC; experiment: BLI binning on CARD, competitor 18F4C12-Ab1
CARD domain of human ASC [24] = biological target: T2, CARD domain of human ASC; experiment: BLI binning on CARD, competitor 32B6C7-Ab1
CARD domain of human ASC [25] = biological target: T2, CARD domain of human ASC; experiment: BLI binning on CARD, competitor 2609F4A9-Ab1
CARD domain of human ASC [26] = biological target: T2, CARD domain of human ASC; experiment: BLI binning on CARD, competitor 2622E12F11-Ab1
mouse ASC [27] = biological target: T1, mouse ASC; experiment: SPR affinity mode, steady-state fit, apparent KD
CARD domain of human ASC [28] = biological target: T2, CARD domain of human ASC; experiment: BLI binning on CARD, competitor 2629E8D1-Ab1

Binder | normalized binding response (PYD domain of human ASC [1]) [%] | normalized binding response (PYD domain of human ASC [2]) [%] | Kd (mouse ASC [3]) [nM] | koff (mouse ASC [3]) [s⁻¹] | kon (mouse ASC [3]) [M⁻¹ s⁻¹] | Kd [4] [nM] | koff [4] [s⁻¹] | kon [4] [M⁻¹ s⁻¹] | normalized binding response (PYD domain of human ASC [5]) [%] | normalized binding response (PYD domain of human ASC [7]) [%] | EC50 (mouse ASC [8]) [nM] | normalized binding response (PYD domain of human ASC [9]) [%] | EC50 [10] [nM] | normalized binding response (PYD domain of human ASC [11]) [%] | % IL-1β inhibition, mouse primary microglia, 420 nM mAb (mouse ASC [12]) [%] | normalized binding response (PYD domain of human ASC [13]) [%] | normalized binding response (PYD domain of human ASC [14]) [%] | normalized binding response (PYD domain of human ASC [15]) [%] | IL-1β release, human monocytic cell line, IC50 [16] [nM] | Human ASC polymerization assay, IC50 [18] [nM] | further results
ACI-8016-22D3A6-AB1 (antibody, V domains shown, also called 936.22D3A6; ACI-8016-22D3A6-AB1_hmG2c) VH: QAQLQQSGTELARPGSSVKLSCKASGFTFTIYGINWVKQRTGQGLEWIGEIYPRSGNTYYDEKFKGKATLTADKSTSTAYMELRSLTSEDSAVYFCARSREWEGVFWGQGTLVTVSA VL: QIVLTQSPAIMSAFPGEKVTITCSATSSVSYMHWFQQKPGTSPKLWIYSTSNLASGVPARFSGSGSGTSHSLTINRMEAEDAATYYCQQRSRYPFTFGSGTKLEIK | 2 | 73 | 1.16 | 0.00069 | 598000 | 0.38 | 0.000264 | 690000 | 2 | 3 | 0.27 | 2 | 0.27 | 1 | 40 | 1 | 74 | 0 | 41.1 | 4.2 | binding result (CARD domain of human ASC [6]): no binding; Mouse ASC polymerization assay, IC50 (mouse ASC [17]): 30.1 nM; EC50 (PYD domain of human ASC [19]): 0.2 nM
ACI-8016-18F4C12-AB1 (antibody, V domains shown, also called 936.18F4C12) VH: EVQLQQSGAELVRPGSSVKMTCKTSGYSFSSYGMSWVKQRPGQGLEWIGYIYVGNGYTEYNEKFKGKATLTSDTSSSTVYMDFRSLTSEDSAIYFCARLNRGRALDFWGQGTTLTVSS VL: DIVLTQSPASLAVSLGQRATISCRASQSVSTSGHSYMHWYQQKPRQSPKLLIHFASNLESGVPARFTGSGSGTDFTLNIHPVEEEDAATYYCQHSWDLPYTFGGGTKLEIK | – | – | – | – | – | 0.7 | 0.000442 | 621000 | – | – | 0.2 | – | 0.19 | – | 82.8 | – | – | – | 15.9 | 4.7 | EC50 (CARD domain of human ASC [21]): 0.18 nM; normalized binding response (CARD domain of human ASC [22]): 33%; normalized binding response (CARD domain of human ASC [23]): 0%; normalized binding response (CARD domain of human ASC [24]): 78%; normalized binding response (CARD domain of human ASC [25]): 68%; normalized binding response (CARD domain of human ASC [26]): -3%; binding result (PYD domain of human ASC [19]): no binding; Kd (mouse ASC [27]): 54.5 nM; normalized binding response (CARD domain of human ASC [28]): 69%
ACI-8016-26A1G2-AB1 (antibody, V domains shown, also called 936.26A1G2; ACI-8016-26A1G2-AB1_hmG2c) VH: QVQLQQSGAELARPGASVKLSCKASGYNFTTYGINWVKQRTGQGLEWIGKIYPRSGNTHNNENFKGKATLTADTSSSTAYMDLRSLTSEDSAVYFCARSPYAFYSSSYWYFDVWGTGTTVTVSS VL: DIKMTQSPSSMYASLGERVTITCKASQDIKSYLSWYQQKPWKSPKTLIYYATSLADGVPSRFSGSGSGQDYSLTISSLESDDTATYYCLQHGESPFTFGSGTKLEIK | 23 | 63 | 3.81 | 0.000101 | 27600 | 1.87 | 8.05e-05 | 42000 | 14 | 22 | 0.15 | 23 | 0.13 | 19 | 52.1 | 18 | 33 | 3 | – | 4.9 | Mouse ASC polymerization assay, IC50 (mouse ASC [17]): 24.8 nM; EC50 (PYD domain of human ASC [19]): 0.12 nM; binding result (CARD domain of human ASC [20]): no binding

Continued, in another order:

normalized binding response (PYD domain of human ASC [1]) [%] | normalized binding response (PYD domain of human ASC [2]) [%] | Kd (mouse ASC [3]) [nM] | koff (mouse ASC [3]) [s⁻¹] | kon (mouse ASC [3]) [M⁻¹ s⁻¹] | Kd [4] [nM] | koff [4] [s⁻¹] | kon [4] [M⁻¹ s⁻¹] | normalized binding response (PYD domain of human ASC [5]) [%] | normalized binding response (PYD domain of human ASC [7]) [%] | EC50 (mouse ASC [8]) [nM] | normalized binding response (PYD domain of human ASC [9]) [%] | EC50 [10] [nM] | normalized binding response (PYD domain of human ASC [11]) [%] | % IL-1β inhibition, mouse primary microglia, 420 nM mAb (mouse ASC [12]) [%] | normalized binding response (PYD domain of human ASC [13]) [%] | normalized binding response (PYD domain of human ASC [14]) [%] | normalized binding response (PYD domain of human ASC [15]) [%] | IL-1β release, human monocytic cell line, IC50 [16] [nM] | Human ASC polymerization assay, IC50 [18] [nM] | Binder | further results
2 | 75 | 0.15 | 0.000162 | 1.09e+06 | 0.15 | 0.000118 | 810000 | 4 | 0 | 0.23 | 1 | 0.16 | 2 | 94.3 | 1 | 88 | 2 | 20.3 | 6 | ACI-8016-2617C3A8-AB1 (antibody, V domains shown) VH: QVQLQQSGVELARPGASVKLSCKASGSTFTSYSITWVKQRTGQGLEWIGVIYPRSDNTYYDEKFKGKATLTADKSSSTAYIELRSLTSEDSAVYFCATRDYWGQGTTLTVSS VL: QIVLTQSPAIMSASPGEKVTITCSASSSVSYMYWFQQKPGTSPKFWIYSTSNLASGVPARFSGSGSGTSYSLTISRMEAEDAATYYCQQRSNYPFTFGSGTKLEIK | Mouse ASC polymerization assay, IC50 (mouse ASC [17]): 35.7 nM; EC50 (PYD domain of human ASC [19]): 0.16 nM; binding result (CARD domain of human ASC [20]): no binding
– | – | – | – | – | 1.06 | 0.000201 | 192000 | – | – | 0.14 | – | 0.14 | – | 66.7 | – | – | – | 13.9 | 12.1 | ACI-8016-32B6C7-AB1 (antibody, V domains shown, also called 936.32B6C7) VH: QVQLQQSDAELVKPGASVKISCKISGYTFTDQTIHWMNQRPEQGLEWIGYIYPGDGSAMYNEKFRGKATLTADKSSSTAYMQLNSLTSEDSAVYFCARPLYSYASYYWFAYWGQGTLVTVSA VL: DIQMNQSPSSLSASLGDTITITCHASQNINVWLSWYQRKPGNIPKLLIYKSSNLHTGVPSRFSGSGSGTGFTLTISSLQPEDIATYYCQQGQSYPLTFGGGTKLEIK | EC50 (CARD domain of human ASC [21]): 0.11 nM; normalized binding response (CARD domain of human ASC [22]): -3%; normalized binding response (CARD domain of human ASC [23]): 97%; normalized binding response (CARD domain of human ASC [24]): 0%; normalized binding response (CARD domain of human ASC [25]): -3%; normalized binding response (CARD domain of human ASC [26]): 106%; binding result (PYD domain of human ASC [19]): no binding; Kd (mouse ASC [27]): 36.9 nM; normalized binding response (CARD domain of human ASC [28]): -2%

From US20250320284A1 (AC IMMUNE, published 2025)
